Patent US11130803B2, “Isoform-selective TGFβ1 inhibitors and use thereof” (Scholar Rock, Inc., priority 2018, dated 2021)
Read-outs that look alike come from different tables or passages of the source.

Legend:
[1] = system: matrix-associated (LTBP1/LTBP3) and cell-associated (GARP/LRRC33) proTGFβ1 complexes; experiment: Octet: average KD and fold bias, matrix- vs cell-associated complexes; assay type: binding, human; conditions: for Kd: average KD of (E) and (F), cell-associated complexes, read-out: (G) Cell AVRG; for (H) G/D (fold bias): ratio of average KD cell-associated / matrix-associated
From the text: Column (A) of the table lists monoclonal antibodies with discrete amino acid sequences. […] Columns (B), (D), (E) and (F) provide affinities of each of the listed antibodies, measured in KD. […] Average KD values of (B) and (C) are shown in the corresponding column (D), which collectively represents affinities of the antibodies to ECM- or matrix-associated proTGFβ1 complexes. Similarly, Average KD values of (E) and (F) are shown in the corresponding column (G), which collectively represents affinities of the antibodies to cell-surface or cell-associated proTGFβ1 complexes. Finally, relative ratios between the average KD values from columns (D) and (G) are expressed as “fold bias” in column (H). […] This is one way of quantitatively representing and comparing inherent bias of antibodies to their target complexes.
Average KD values between the two matrix-associated and cell-associated complexes are calculated, respectively (see columns (D) and (G)). These average KD values can then be used to ask whether bias in binding activities exists between complexes associated with matrix vs. complexes associated with cell surface (e.g., immune cells). Bias may be expressed as “fold-difference” in the average KD values, as illustrated in Table 8.

[2] = target: T1, recombinant human GARP-proTGFβ1 complex (Homo sapiens, UniProt P01137); experiment: Octet (Biolayer Interferometry) in vitro kinetic binding; conditions: in M
T1 construct: made in house
T1 sequence (P01137 30-390): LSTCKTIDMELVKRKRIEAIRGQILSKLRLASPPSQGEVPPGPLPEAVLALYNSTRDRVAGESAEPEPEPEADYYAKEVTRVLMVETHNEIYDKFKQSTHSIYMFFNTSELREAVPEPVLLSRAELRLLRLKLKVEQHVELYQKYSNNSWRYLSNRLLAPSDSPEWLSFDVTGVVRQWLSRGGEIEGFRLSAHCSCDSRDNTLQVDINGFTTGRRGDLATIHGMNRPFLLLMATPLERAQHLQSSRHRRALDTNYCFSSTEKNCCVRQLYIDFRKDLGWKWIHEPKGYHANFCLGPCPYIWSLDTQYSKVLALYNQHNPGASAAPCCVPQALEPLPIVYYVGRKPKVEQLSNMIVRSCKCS
T1 sequence (Q14392 20-627 partner limits assumed): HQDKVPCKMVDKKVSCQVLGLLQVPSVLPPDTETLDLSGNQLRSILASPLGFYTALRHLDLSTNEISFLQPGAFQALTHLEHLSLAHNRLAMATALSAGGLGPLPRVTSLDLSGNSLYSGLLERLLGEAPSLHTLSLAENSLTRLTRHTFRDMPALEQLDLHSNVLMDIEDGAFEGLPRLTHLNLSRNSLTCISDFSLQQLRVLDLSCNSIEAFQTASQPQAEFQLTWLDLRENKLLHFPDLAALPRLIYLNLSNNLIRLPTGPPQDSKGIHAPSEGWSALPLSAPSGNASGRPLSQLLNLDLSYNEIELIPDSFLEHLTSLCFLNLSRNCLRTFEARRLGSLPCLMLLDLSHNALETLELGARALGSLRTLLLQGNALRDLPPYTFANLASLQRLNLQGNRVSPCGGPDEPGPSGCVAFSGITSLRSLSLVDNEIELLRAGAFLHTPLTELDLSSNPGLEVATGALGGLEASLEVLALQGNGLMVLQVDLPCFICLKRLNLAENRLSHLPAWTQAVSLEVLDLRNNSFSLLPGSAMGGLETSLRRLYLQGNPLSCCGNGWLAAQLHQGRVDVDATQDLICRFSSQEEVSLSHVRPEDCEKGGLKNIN
From the text: (§1) Biolayer Interferometry (BLI):BLI is a label-free technology for optically measuring biomolecular interactions, e.g., between a ligand immobilized on the biosensor tip surface and an analyte in solution. BLI provides the ability to monitor binding specificity, rates of association and dissociation, or concentration, with precision and accuracy. BLI platform instruments are commercially available, for example, from ForteBio and are commonly referred to as the Octet® System.
(§2) BLI-based binding assays are widely used in the art for measuring affinities and kinetics of antibodies to antigens. It is a label-free technology in which biomolecular interactions are analyzed on the basis of optical interference. One of the proteins, for example, an antibody being tested, can be immobilized on the biosensor tip. When the other protein in solution, for example, an antigen, becomes bound to the immobilized antibody, it causes a shift in the interference pattern, which can be measured in real-time. This allows the monitoring of binding specificity, rates of association and dissociation, as well as concentration dependency. […] Due to its ease of use and fast results, BLI-based assays such as the Octet® system (available from ForteBio/Molecular Devices, Fremont Calif.), are particularly convenient when used as an initial screening method to identify and separate a pool of “binders” from a pool of “non-binders” or “weak binders” in the screening process.
(§3) Table 8 below provides non-limiting examples of high-affinity, context-independent proTGFβ1 antibodies encompassed by the present invention. The table provides representative results from in vitro binding assays, as measured by Octet®.
(§4) Column (A) of the table lists monoclonal antibodies with discrete amino acid sequences. […] Columns (B), (D), (E) and (F) provide affinities of each of the listed antibodies, measured in KD. […] Average KD values of (B) and (C) are shown in the corresponding column (D), which collectively represents affinities of the antibodies to ECM- or matrix-associated proTGFβ1 complexes. Similarly, Average KD values of (E) and (F) are shown in the corresponding column (G), which collectively represents affinities of the antibodies to cell-surface or cell-associated proTGFβ1 complexes. Finally, relative ratios between the average KD values from columns (D) and (G) are expressed as “fold bias” in column (H). Thus, the greater the number of column (H) is, the greater bias exists for the particular antibody, when comparing binding preferences of the antibody for matrix-associated complexes and cell-surface complexes. This is one way of quantitatively representing and comparing inherent bias of antibodies to their target complexes. Such analyses may be useful in guiding the selection process for a candidate antibody for particular therapeutic use.
(§5) In some embodiments, the binding affinity of an antibody, or antigen binding portion thereof, to an antigen (e.g., protein complex), such as presenting molecule-proTGFβ1 complexes, is determined using an Octet assay. In some embodiments, an Octet assay is an assay that determines one or more a kinetic parameters indicative of binding between an antibody and antigen. In some embodiments, an Octet® system (ForteBio, Menlo Park, Calif.) is used to determine the binding affinity of an antibody, or antigen binding portion thereof, to presenting molecule-proTGFβ1 complexes. For example, binding affinities of antibodies may be determined using the fortéBio Octet QKe dip and read label free assay system utilizing bio-layer interferometry. In some embodiments, antigens are immobilized to biosensors (e.g., streptavidin-coated biosensors) and the antibodies and complexes (e.g., biotinylated presenting molecule-proTGFβ1 complexes) are presented in solution at high concentration ([…]) to measure binding interactions. […]

[3] = target: T2, recombinant human LTBP3-proTGFβ1 complex (Homo sapiens, UniProt P01137); experiment: as above; conditions: in M
T2 construct: made in house; host or cells: Expi293F cells, transient co-transfection
T2 sequence (P01137 30-390): as the sequence (P01137 30-390) above
T2 sequence (Q9NS15 866-1039 partner limits assumed): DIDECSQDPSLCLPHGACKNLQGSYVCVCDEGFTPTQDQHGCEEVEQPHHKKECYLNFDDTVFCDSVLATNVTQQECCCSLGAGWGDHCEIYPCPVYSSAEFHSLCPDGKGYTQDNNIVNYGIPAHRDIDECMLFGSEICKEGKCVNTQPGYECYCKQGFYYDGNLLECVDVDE
From the text: as §1, §2, §3, §4, §5

[4] = target: T3, recombinant human LTBP1-proTGFβ1 complex (Homo sapiens, UniProt P01137); experiment: as above; conditions: in M
T3 construct: made in house; host or cells: Expi293F cells, transient co-transfection
T3 sequence (P01137 30-390): as the sequence (P01137 30-390) above
T3 sequence (Q14766 873-1507 partner): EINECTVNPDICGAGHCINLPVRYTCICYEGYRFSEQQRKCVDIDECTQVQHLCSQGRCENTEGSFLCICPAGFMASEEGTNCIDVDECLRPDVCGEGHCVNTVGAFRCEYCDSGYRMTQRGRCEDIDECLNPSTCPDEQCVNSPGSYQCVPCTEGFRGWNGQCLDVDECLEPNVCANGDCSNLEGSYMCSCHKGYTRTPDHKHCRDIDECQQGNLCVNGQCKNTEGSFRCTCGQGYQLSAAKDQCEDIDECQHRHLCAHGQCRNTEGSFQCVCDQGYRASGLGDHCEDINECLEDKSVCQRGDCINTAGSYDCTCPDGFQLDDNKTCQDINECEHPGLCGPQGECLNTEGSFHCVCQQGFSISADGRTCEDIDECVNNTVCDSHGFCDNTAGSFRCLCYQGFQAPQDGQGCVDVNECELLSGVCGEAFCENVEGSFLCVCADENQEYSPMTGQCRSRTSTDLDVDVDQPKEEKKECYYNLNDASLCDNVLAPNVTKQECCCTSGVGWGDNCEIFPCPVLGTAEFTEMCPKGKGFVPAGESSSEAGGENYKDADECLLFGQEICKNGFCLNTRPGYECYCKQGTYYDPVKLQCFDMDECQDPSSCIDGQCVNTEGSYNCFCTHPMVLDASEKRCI
From the text: as §1, §2, §3, §4, §5

[5] = target: T4, recombinant human LRRC33-proTGFβ1 complex (Homo sapiens, UniProt P01137); experiment: as above; conditions: in M
T4 construct: made in house
T4 sequence (P01137 30-390): as the sequence (P01137 30-390) above
T4 sequence (Q86YC3 19-650 partner limits assumed): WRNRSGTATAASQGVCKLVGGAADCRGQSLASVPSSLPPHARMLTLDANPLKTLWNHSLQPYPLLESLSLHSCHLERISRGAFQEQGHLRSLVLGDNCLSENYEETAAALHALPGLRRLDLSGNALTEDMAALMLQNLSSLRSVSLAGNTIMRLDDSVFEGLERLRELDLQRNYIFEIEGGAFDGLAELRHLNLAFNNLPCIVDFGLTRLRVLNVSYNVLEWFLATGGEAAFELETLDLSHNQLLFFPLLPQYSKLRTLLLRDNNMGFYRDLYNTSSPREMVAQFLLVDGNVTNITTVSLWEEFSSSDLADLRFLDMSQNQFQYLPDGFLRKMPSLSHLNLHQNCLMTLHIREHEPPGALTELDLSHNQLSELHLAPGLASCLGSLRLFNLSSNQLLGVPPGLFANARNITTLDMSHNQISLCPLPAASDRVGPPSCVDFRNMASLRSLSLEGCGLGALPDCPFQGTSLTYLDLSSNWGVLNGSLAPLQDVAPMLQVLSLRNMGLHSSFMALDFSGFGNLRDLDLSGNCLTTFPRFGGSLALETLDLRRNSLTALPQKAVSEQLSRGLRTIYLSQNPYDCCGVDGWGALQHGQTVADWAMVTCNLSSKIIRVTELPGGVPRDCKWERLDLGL
From the text: as §1, §2, §3, §4, §5

[6] = system: matrix-associated (LTBP1/LTBP3) and cell-associated (GARP/LRRC33) proTGFβ1 complexes; experiment: Octet: average KD and fold bias, matrix- vs cell-associated complexes; assay type: binding, human; conditions: average KD of (B) and (C), read-out: (D) ECM AVRG

| Molecule | (E) hGARP, Cell-associated proTGFb1 (KD) [2] | (C) hLTBP3, Matrix-associated proTGFb1 (KD) [3] | (B) hLTBP1, Matrix-associated proTGFb1 (KD) [4] | (F) hLRRC33, Cell-associated proTGFb1 (KD) [5] | Kd [1] [pM] | (H) G/D (fold bias) [1] [fold] | Kd [6] [pM] |
| --- | --- | --- | --- | --- | --- | --- | --- |
| Ab21: monoclonal antibody; VH SEQ ID NO: 129, VL SEQ ID NO: 15 (antibody, V domains shown) VH: EVQLVESGGGLVQPGGSLRLSCAASGFTFSSFSMDWVRQAPGKGLEWVSYISPDASTIYYADSVKGRFTISRDNAKNSLYLQMNSLRAEDTAVYYCARGVLDYGDMLDPWGQGTLVTVSS VL: DIQMTQSPSSLSASVGDRVTITCQASQDITNYLNWYQQKPGKAPKLLIYDASNLETGVPSRFSGSGSGTDFTFTISSLQPEDIATYYCQQADNHPPWTFGGGTKVEIK | 8.33E−10 | 2.68E−10 | 2.25E−10 | 4.55E−10 | 644 | 2.613 | 246 |
| Ab13: monoclonal antibody; VH SEQ ID NO: 242, VL SEQ ID NO: 243 (antibody, V domains shown) VH: EVQLLESGGGLVQPGGSLRLSCAASGFTFADYAMTWVRQAPGKGLEWVSAISSFASAIYYADSVKGRFTISRDNSKNTLYLQMNSLRAEDTAVYYCARVSSGHWDFDYWGQGTLVTVSS VL: DIQMTQSPSSLSASVGDRVTITCRASQSISSYLNWYQQKPGKAPKLLIYAASSLQSGVPSRFSGSGSGTDFTLTISSLQPEDFATYYCQQVYDPPLTFGGGTKVEIK | 1.00E−08 | 2.49E−10 | 2.76E−10 | 1.40E−09 | 5700 | 21.71 | 262 |
| Ab15: monoclonal antibody; VH SEQ ID NO: 245, VL SEQ ID NO: 241 (antibody, V domains shown) VH: EVQLVESGGGVVQPGRSLRLSCAASGFTFSDYAMVWVRQAPGKGLEWVSAISGSGFTTYYADSVKGRFTISRDNSKNTLYLQMNSLRAEDTAVYYCARVSSGHWDFDYWGQGTLVTVSS VL: DIQLTQSPSSLSASVGDRVTITCRASQSISSYLNWYQQKPGKAPKLLIYAASNLQSGVPSRFSGSGSGTDFTLTISSLQPEDFATYYCQQTYTVPLTFGGGTKVEIK | 7.01E−09 | 1.68E−10 | 1.50E−10 | 7.02E−10 | 3860 | 24.25 | 159 |
| Ab14: monoclonal antibody; VH SEQ ID NO: 244, VL SEQ ID NO: 243 (antibody, V domains shown) VH: EVQLLESGGGLVQPGGSLRLSCAASGFTFSAYAMTWVRQAPGKGLEWVSAISGTGGSTYYADSVKGRFTISRDNSKNTLYLQMNSLRAEDTAVYYCARVSSGHWDFDYWGQGTLVTVSS VL: DIQMTQSPSSLSASVGDRVTITCRASQSISSYLNWYQQKPGKAPKLLIYAASSLQSGVPSRFSGSGSGTDFTLTISSLQPEDFATYYCQQVYDPPLTFGGGTKVEIK | 1.05E−08 | 3.46E−10 | 3.36E−10 | 1.34E−09 | 5920 | 17.36 | 341 |

Continued, in another order:

| (E) hGARP, Cell-associated proTGFb1 (KD) [2] | (C) hLTBP3, Matrix-associated proTGFb1 (KD) [3] | (B) hLTBP1, Matrix-associated proTGFb1 (KD) [4] | (F) hLRRC33, Cell-associated proTGFb1 (KD) [5] | Molecule | Kd [1] [pM] | (H) G/D (fold bias) [1] [fold] | Kd [6] [pM] |
| --- | --- | --- | --- | --- | --- | --- | --- |
| 4.88E−10 | 1.52E−10 | 2.17E−10 | 4.09E−10 | Ab25: monoclonal antibody; VH SEQ ID NO: 133, VL SEQ ID NO: 15 (antibody, V domains shown) VH: EVQLVESGGGLVQPGGSLRLSCAASGFTFGSFSMDWVRQAPGKGLEWVSYISPDASTIYYADSVKGRFTISRDNAKNSLYLQMNSLRAEDTAVYYCARGVLDYGDMLDPWGQGTLVTVSS VL: DIQMTQSPSSLSASVGDRVTITCQASQDITNYLNWYQQKPGKAPKLLIYDASNLETGVPSRFSGSGSGTDFTFTISSLQPEDIATYYCQQADNHPPWTFGGGTKVEIK | 448 | 2.431 | 184 |
| 4.24E−10 | 2.38E−10 | 1.78E−10 | 2.99E−10 | Ab27: monoclonal antibody; VH SEQ ID NO: 135, VL SEQ ID NO: 15 (antibody, V domains shown) VH: EVQLVESGGGLVQPGGSLRLSCAASGFTFSFYAMNWVRQAPGKGLEWVSYISPDASTIYYADSVKGRFTISRDNAKNSLYLQMNSLRAEDTAVYYCARGVLDYGDMLDPWGQGTLVTVSS VL: DIQMTQSPSSLSASVGDRVTITCQASQDITNYLNWYQQKPGKAPKLLIYDASNLETGVPSRFSGSGSGTDFTFTISSLQPEDIATYYCQQADNHPPWTFGGGTKVEIK | 362 | 1.738 | 208 |
| 7.97E−10 | 3.16E−10 | 3.40E−10 | 4.09E−10 | Ab28: monoclonal antibody; VH SEQ ID NO: 136, VL SEQ ID NO: 15 (antibody, V domains shown) VH: EVQLVESGGGLVQPGGSLRLSCAASGFTFSSFSMDWVRQAPGKGLEWVSYISPDASTIYYADSVKGRFTISRDNAKNSLYLQMNSLRAEDTAVYYCVRGVLDYGDMLDPWGQGTLVTVSS VL: DIQMTQSPSSLSASVGDRVTITCQASQDITNYLNWYQQKPGKAPKLLIYDASNLETGVPSRFSGSGSGTDFTFTISSLQPEDIATYYCQQADNHPPWTFGGGTKVEIK | 603 | 1.838 | 328 |
| 1.34E−09 | 4.68E−10 | 4.17E−10 | 4.55E−10 | Ab23: monoclonal antibody; VH SEQ ID NO: 131, VL SEQ ID NO: 15 (antibody, V domains shown) VH: EVQLVESGGGLVQPGGSLRLSCAASGFTFSSFSMNWVRQAPGKGLEWVSYISPSADTIYYADSVKGRFTISRDNAKNTLYLQMNSLRAEDTAVYYCARGVLDYGDMLDPWGQGTLVTVSS VL: DIQMTQSPSSLSASVGDRVTITCQASQDITNYLNWYQQKPGKAPKLLIYDASNLETGVPSRFSGSGSGTDFTFTISSLQPEDIATYYCQQADNHPPWTFGGGTKVEIK | 898 | 2.028 | 442 |
